What was measured:
[1] = system: ZFN 17749 (IgM) (synthetic); assay: cell_activity; conditions: pair 17747/17749, CMV promoter, C6 chromosomes cleaved (about 1% with CAG); 5 of 43 rats modified
[2] = system: ZFN 17747 (IgM) (synthetic); assay: cell_activity; conditions: pair 17747/17749, CMV promoter, C6 chromosomes cleaved (about 1% with CAG); 5 of 43 rats modified

| Sequence | activity [1] | activity [2] |
| --- | --- | --- |
| AGACAGGGGGCTCTC (double strand) [IgM target of 17749] | 3% | – |
| AATTTGGTGGCCATGGGC (double strand) [IgM target of 17747] | – | 3% |
